Measurements as given in the RNAGym collection of RNA variant scans (doi:10.7554/elife.90254).

B1: LINE1-full (parent)
chain: UACGUAGGUGGUUUUCCCCUGAUAGUGCUAAGGGGGCCUGGAAGUUUGGACUGGGCAGAGCUCAACACAGCGUGGCAAAGUGGCUGUGGCUAGACUGCCUCUCUGGAUUCCUCGUCACUCAGCAGGGCAUCUCUGAGAGAAAUGCC

Variants of: B1
Assay: self-cleavage, relative activity (ratio to wild type); higher = more cleavage; in vitro, sequencing; the parent is a self-cleaving ribozyme
In the case of UACGUAGGUGGUUUUCCCCUGAUAGUGCUAAGGGGGCCUGGAAGUUUGGACUGGGCAGAGCUCAACACAGCGUCGCAAAGUGGCUGUGGCUAGACUGCUUCUCUGGAUUCCUCGUCACUCAGCAGGGCAUCUCUGAGAGAAAUGCC, the self-cleavage is reported as 0.61.
In the case of UACGUAGGUGGUUUUCCCCUGAUAGUGCUAAGGGGGCCUGGAAGUUUGGACUGGGCAGAGCUCAACACAGCGUAGCAAAGUGGCUGAGGCUAGACUGCCUCUCUGGAUUCCUCGUCACUCAGCAGGGCAUCUCUGAGAGAAAUGCC, the self-cleavage is reported as 0.07.
For UACGUAGGUGGUUUUCCCCUGAUAGUGCUAAGGGGGCCUGGAAGUUUGGACUGGGCAGAGCUCAACACAGCGUAGCAAAGUGGCUGUGGCUAGACUGCCUCUCUGGAUUCCUCGUCACUCAGCAGGGCAGCUCUGAGAGAAAUGCC, the self-cleavage was 1.51.
Variant UACGUAGGUGGUUUUCCCCUGAUAGUGCUAAGGGGGCCUGGAAGUUUGGACUGGGCAGAGCUCAACACAGCGUAGCAAAGUGGCUGUGGCUAGACUGCCUCUCUGGAUUCCUCGUCACUCAGCAGGGCAUCUCUGAGAGAAGUGCC has a self-cleavage of 1.1.
Variant UACGUAGGUGGUUUUCCCCUGAUAGUGCUAAGGGGGCCUGGAAGUUUGGACUGGGCAGAGCUCAACACAGCGUAGCAAAGUGGCAGUGGCUAGACUGCCUCUCUGGAUUCCUCGUCACUCAGCAGGGCAUCUCUGAGAGAAAUGCC has a self-cleavage of 0.05.
For UACGUAGGUGGUUUUCCCCUGAUAGUGCUAAGGGGGCCUGGAAGUUUGGACUGGGCAGAGCUCAACACAGCGUAGCAAAGUGGCUGUGGCUAGACUGCCUCUCUGGAUUCCUCGACACUCAGCAGGGCAUCUCUGAGAGAAAUGCC, the self-cleavage was 1.45.
Variant UACGUAGGUGGUUUUCCCCUGAUAGUGCUAAGGGGGCCUGGAAGUUUGGACUGGGCAGAGCUCAACACAGCGUCGCAAAGUGGCUGUGGCUAGACUGCCUCCCUGGAUUCCUCGUCACUCAGCAGGGCAUCUCUGAGAGAAAUGCC has a self-cleavage of 0.88.
With UACGUAGGUGGUUUUCCCCUGAUAGUGCUAAGGGGGCCUGGAAGUUUGGACUGGGCAGAGCUCAACACAGCGUAGCAAAGUGGCUGUGGCUAGACUGCCACUCUGGAUUCCUCGUCACUCAGCAGGGCAUCUCUGAGAGAAAUGCC the self-cleavage was 0.7.
Variant UACGUAGGUGGUUUUCCCCUGAUAGUGCUAAGGGGGCCUGGAAGUUUGGACUGGGCAGAGCUCAACACAGCGUUGCAUAGUGGCUGUGGCUAGACUGCCUCUCUGGAUUCCUCGUCACUCAGCAGGGCAUCUCUGAGAGAAAUGCC has a self-cleavage of 2.2.
For UACGUAGGUGGUUUUCCCCUGAUAGUGCUAAGGGGGCCUGGAAGUUUGGACUGGGCAGAGCUCAACACAGCGUAGCAAAGUGGCUGUGGCUAGACAGCCUCUCUGGAUUCCUCGUCACUCAGCAGGGCAUCUCUGAGAGAAAUGCC, the self-cleavage was 0.07.
UACGUAGGUGGUUUUCCCCUGAUAGUGCUAAGGGGGCCUGGAAGUUUGGACUGGGCAGAGCUCAACACAGCGUAGCAAAGUGGCUGUGGCUAGACUGCCUCGCUGGAUUCCUCGUCACUCAGCAGGGCAUCUCUGAGAGAAAUGCC gave a self-cleavage of 0.56.
For UACGUAGGUGGUUUUCCCCUGAUAGUGCUAAGGGGGCCUGGAAGUUUGGACUGGGCAGAGCUCAACACAGCGUAGCAAAGUGGCUAUGGCUAGACUGCCUCUCUGGAUUCCUCGUCACUCAGCAGGGCAUCUCUGAGAGAAAUGCC, the self-cleavage was 0.
UACGUAGGUGGUUUUCCCCUGAUAGUGCUAAGGGGGCCUGGAAGUUUGGACUGGGCAGAGCUCAACACAGCGUCGCAAAGUGGCUGUGGCUAGACUGCCUCUCUGGAUUCCUCGUCACUCAGCAGGGCAUCUCUGAGAGGAAUGCC gave a self-cleavage of 1.53.
Work on UACGUAGGUGGUUUUCCCCUGAUAGUGCUAAGGGGGCCUGGAAGUUUGGACUGGGCAGAGCUCAACACAGCGUAGCAAAGUGGCUGUGGCUAGACUGCCUCUCCGGAUUCCUCGUCACUCAGCAGGGCAUCUCUGAGAGAAAUGCC yielded a self-cleavage of 1.34.
UACGUAGGUGGUUUUCCCCUGAUAGUGCUAAGGGGGCCUGGAAGUUUGGACUGGGCAGAGCUCAACACAGCGUUGCGAAGUGGCUGUGGCUAGACUGCCUCUCUGGAUUCCUCGUCACUCAGCAGGGCAUCUCUGAGAGAAAUGCC showed a self-cleavage of 1.01.
With UACGUAGGUGGUUUUCCCCUGAUAGUGCUAAGGGGGCCUGGAAGUUUGGACUGGGCAGAGCUCAACACAGCGUAGCAAAGUGGCUGUGGCUAGACUGCCUCUCUGGAUUCCUCGUCACUCAGCAGGGCAUCUCUGAGAGGAAUGCC the self-cleavage was 1.22.
For UACGUAGGUGGUUUUCCCCUGAUAGUGCUAAGGGGGCCUGGAAGUUUGGACUGGGCAGAGCUCAACACAGCGUAGCAAAGUGGCUGUGGCUAGACUGCCUCUCUGGAUUCCUCGUCACUCAGCAGGGCAUCUCUGAGAGUAAUGCC, the self-cleavage was 1.31.
Work on UACGUAGGUGGUUUUCCCCUGAUAGUGCUAAGGGGGCCUGGAAGUUUGGACUGGGCAGAGCUCAACACAGCGUAGCAAAGUGGUUGUGGCUAGACUGCCUCUCUGGAUUCCUCGUCACUCAGCAGGGCAUCUCUGAGAGAAAUGCC yielded a self-cleavage of 0.07.
For UACGUAGGUGGUUUUCCCCUGAUAGUGCUAAGGGGGCCUGGAAGUUUGGACUGGGCAGAGCUCAACACAGCGUAGCAAAGUGGCUGUGGCUAGACUGCCUCUCUGGACUCCUCGUCACUCAGCAGGGCAUCUCUGAGAGAAAUGCC, the self-cleavage was 1.48.
For UACGUAGGUGGUUUUCCCCUGAUAGUGCUAAGGGGGCCUGGAAGUUUGGACUGGGCAGAGCUCAACACAGCGUAGCAAAGUGGCUGUGGCUAGACUGCCUCUCUGGAUUCCUCGUCACCCAGCAGGGCAUCUCUGAGAGAAAUGCC, the self-cleavage was 1.71.
